Earlier results as cited in US20070264241A1, “Compounds for Enhanced Cancer Therapy” (priority 2004, published 2007).

Tested on: cell line transfected with Dm dNK variant
Conditions: cited from earlier work

B1: B5: mutant form of the Drosophila melanogaster Dm dNK deoxyribonucleoside kinase (SEQ ID NO 5) (protein)
chain: MAEAASCARKGTKYAEGTQPFTVLIEGNIGSGKTTYLNHFEKYKNDICLLTEPVEKWRNVNGVNLLELMYKDPKKWAMPFQSYATLTMLQSHTAPTNKKLKIMERSIFSARYCFVENMRRNGSLEQGMYNTLEEWYKFIEESIHVQADLIIYLRTSPEVAYERIRQRARSEESCVPLKYLQELHELHEDWLIHQRRPQSCKVLVLDADLDLENIGTEYQRSESSIFDAISSNQQPSPVPVSPSKRQRVAR
modifications: Drosophila melanogaster
  degree of activation for gemcitabine relative to wild type Dm dNK: approximately 50 times
